Measurements as given in patent US20020182701.

Target: T1, Met-Gly-Met-Met peptide substrate
T1 chain: MGMM

B1: N-terminal HA-tagged wild-type yeast MetAP2 (protein)
chain: YPYDVPDYAMTDAEIENSPASDLKELNLENEGVEQQDQAKADESDPVESKKKKNKKKKKKKSNVKKIELLFPDGKYPEGAWMDYHQDFNLQRTTDEESRYLKRDLERAEHWNDVRKGAEIHRRVRRAIKDRIVPGMKLMDIADMIENTTRKYTGAENLLAMEDPKSQGIGFPTGLSLNHCAAHFTPNAGDKTVLKYEDVMKVDYGVQVNGNIIDSAFTVSFDPQYDNLLAAVKDATYTGIKEAGIDVRLTDIGEAIQEVMESYEVEINGETYQVKPCRNLCGHSIAPYRIHGGKSVPIVKNGDTTKMEEGEHFAIETFGSTGRGYVTAGGEVSHYARSAEDHQVMPTLDSAKNLLKTIDRNFGTLPFCRRYLDRLGQEKYLFALNNLVRHGLVQDYPPLNDIPGSYTAQFEHTILLHAHKKEVVSKGDDYGKMRFQMASSLGIILL
- Specific activity (MetAP activity on 2 mM Met-Gly-Met-Met): Specific activity for the wild-type MetAP2 was 11±0.5 U/mg

B2: N-terminal HA-tagged yeast MetAP2 (H174A) (protein)
chain: YPYDVPDYAMTDAEIENSPASDLKELNLENEGVEQQDQAKADESDPVESKKKKNKKKKKKKSNVKKIELLFPDGKYPEGAWMDYHQDFNLQRTTDEESRYLKRDLERAEHWNDVRKGAEIHRRVRRAIKDRIVPGMKLMDIADMIENTTRKYTGAENLLAMEDPKSQGIGFPTGLSLNHCAAAFTPNAGDKTVLKYEDVMKVDYGVQVNGNIIDSAFTVSFDPQYDNLLAAVKDATYTGIKEAGIDVRLTDIGEAIQEVMESYEVEINGETYQVKPCRNLCGHSIAPYRIHGGKSVPIVKNGDTTKMEEGEHFAIETFGSTGRGYVTAGGEVSHYARSAEDHQVMPTLDSAKNLLKTIDRNFGTLPFCRRYLDRLGQEKYLFALNNLVRHGLVQDYPPLNDIPGSYTAQFEHTILLHAHKKEVVSKGDDYGKMRFQMASSLGIILL
- catalytic activity in vitro: displayed no detectable activity against a peptide substrate (MGMM)
